Experimental findings from article PMC9174178 (Cell Reports, 2022) are described below.

The target of test [1] is T1, BM-4831-CoV receptor-binding domain (RBD) (Bat coronavirus BM48-31/BGR/2008). The test can be described thus: ELISA. On the technique in general: ELISA stands for enzyme-linked immunosorbent assay.
Test [2] addresses W1V1-CoV receptor-binding domain (RBD) (Bat SARS-like coronavirus WIV1, UniProt U5WI05). Nature of the test: ELISA.
In test [3] the target is YN2013-CoV receptor-binding domain (RBD) (BtRs-BetaCoV/YN2013, UniProt A0A0U1WJY8). The test can be described thus: ELISA.
Test [4] deals with ZC45-CoV receptor-binding domain (RBD) (Bat SARS-like coronavirus ZC45, UniProt A0A2R3SUW7). The test can be described thus: ELISA.
The target of test [5] is Rf1-CoV receptor-binding domain (RBD) (Bat SARS CoV Rf1/2004, UniProt Q0QDZ0). Nature of the test: ELISA.
In test [6] the target is Rs4092-CoV receptor-binding domain (RBD) (Bat SARS-like coronavirus Rs4092, UniProt A0A2D1PX37). Nature of the test: ELISA.
Test [7] addresses HKU3-1-CoV receptor-binding domain (RBD) (Bat coronavirus HKU3-1, UniProt Q3LZX1). Nature of the test: ELISA.
The target of test [8] is pangolin17-CoV receptor-binding domain (RBD) (Pangolin coronavirus (pangolin17, …)). The test can be described thus: ELISA.
Test [9] addresses Yun11-CoV receptor-binding domain (RBD) (Bat coronavirus Cp/Yunnan2011, UniProt R9QTH3). The test can be described thus: ELISA.
The target in test [10] is Rs7327-CoV receptor-binding domain (RBD) (Bat SARS-like coronavirus Rs7327, UniProt A0A2D1PXC0). Nature of the test: ELISA.
The target of test [11] is RaTG13-CoV receptor-binding domain (RBD) (Bat coronavirus RaTG13, UniProt A0ABF7PLN6). Nature of the test: ELISA.
For test [12], the target named is BtkY72-CoV receptor-binding domain (RBD) (Bat coronavirus BtKY72, UniProt A0A3Q8AKM0). The test can be described thus: ELISA.
Test [13] concerns the target SHC014-CoV receptor-binding domain (RBD) (Bat SARS-like coronavirus RsSHC014, UniProt U5WLK5). The test can be described thus: ELISA.
Test [14] has as its target Shaanxi2011-CoV receptor-binding domain (RBD) (Bat coronavirus Rp/Shaanxi2011, UniProt R9QTA0). Nature of the test: ELISA.
In test [15] the target is Rp3-CoV receptor-binding domain (RBD) (Bat SARS-like coronavirus Rp3/2004, UniProt Q3I5J5). Nature of the test: ELISA.
The target of test [16] is Rs4081-CoV receptor-binding domain (RBD) (Bat SARS-like coronavirus Rs4081, UniProt A0A2D1PX44). Nature of the test: ELISA.
In test [17] the target is T2, SARS-CoV receptor-binding domain (RBD) (SARS-CoV (AAP13441.1), UniProt P59594). The test can be described thus: SPR. In general terms: Surface plasmon resonance follows binding to a sensor surface in real time, without labels.
The target in test [18] is T1, BM-4831-CoV receptor-binding domain …. Nature of the test: SPR.
The target in test [19] is T2, SARS-CoV receptor-binding domain (RBD).
Test [20] deals with SARS-CoV-2 receptor-binding domain (RBD) (SARS-CoV-2 (MN985325.1), UniProt P0DTC2).

B1: psNb 1-22 (VHH)
VHH: HVQLVESGGGLVQPGGSLRLSCAASGRSFNSYLMGWFRQAPGKEREFVAWISGSPHDIIRYRDSVKDRFTISRDNAKNTVYLQMNSLKPVDTAVYYCAVGSLRVGSFSPDYWGQGTQVTVSS
Consider B1, for which the binding result in test [1] is “binds”.

B2: psNb 2-45 (VHH)
VHH: QVQLVESGGGLVQAGGSLRLSCTASGYDFSILAIAWYRQAPGKERELVAAISRVGSTDYADSVKGRFTISRDNTKNTVSLQMDSLKPEDTAVYYCNAGIPMTTVLSGLGFWGQGTQVTVSS
The term Kd denotes the free concentration of one partner at which half of the binding sites on the other are occupied at equilibrium, for simple one-to-one binding. High values mean weaker binding, low ones tighter binding. As for B2, the binding result in [2], in test [3], in test [4], in test [5], in test [6] and in test [7] was “binds” each time. The binding result in [8], in test [9], in test [10], in [11], in test [12] and in test [13] was “binds” throughout. Besides, the binding result in test [14], in test [15] and in [16] was “binds” throughout. Moreover, the Kd is 304 nM in test [17] and 0.044 nM in test [18].

B3: psNb 1-23 (VHH)
VHH: QVQLVESGGGLVQAGGSLRLSCAASGRTDSISDMGWFRQAPGKEREFVAVVGWSGGGTDYAHSVKGRFTISRDNAKNTVYLQMNSLKPEDTAVYYCAVGSLRVGSFSVEYWGQGTQVTVSS
For the molecule B3, the binding result in [1] is reported as “binds”.

B4: psNb 2-65 (VHH)
VHH: HVQLVESGGGLVQAGGSLRLSCAASGTISTLNAMGWYRQAPGKQRELLASISNLGTTYHADSVAGRFTISRGSAKNTVNLQMNSLKPDDTAVYYCNTRVLEGGTQIRDYWGQGTQVTVSS
Turning to B4, the binding result in [1] is “binds”.

B5: 1-28 (VHH)
VHH: QVQLVESGGGLVQAGGSLRLSCAVSGRTVSTYGMAWFRQTPGKKRDFVATITRSEGTTFYADSVKGRFTISRDNAKNTVYLQMNSLKIEDTAVYYCAVRRDSSWGYSRDLFEYDDWGQGTQVTVSS
As for B5, the binding result in test [19] and in test [20] was “binds” throughout.

B6: psNb 2-31 (VHH)
VHH: QVQLVESGGGLVQAGESLRLSCAASKPTFRNFAAGWFRQTPGKDREFVAVIEYDGDSAYYADSVKGRFTISRDNAKNTVYLQMNRLKPGDTAVYICAIGGNHYDPSKYYTADEYDYWGQGTQVTVSS
As to B6, the binding result in test [2], in test [3], in test [4], in test [5], in test [6] and in [7] was “binds” throughout. Further, the binding result in test [8], in test [9], in test [10], in test [11], in [12] and in [13] was “binds” in each case. Further, the binding result in test [14], in test [15] and in [16] was “binds” each time. Also, the Kd in test [17] was determined as 0.00396 nM; in test [18], 3.6 nM.

B7: psNb 2-34 (VHH)
VHH: HVQLVESGGGLVQAGGSLRLSCAASGRTFSRYAAGWFRQAPGKEREFVAVIEWDGDSAYYADPVKGRFTISRDNAKNTVYLQMNRLKPEDTAVYICAVGGNHYSRSKYYNLDEYDDWGQGTQVTVSS
As for B7, the binding result in test [2], in test [3], in [4], in test [5], in test [6] and in test [7] was “binds” each time. Besides, the binding result in test [8], in test [9], in test [10], in [1], in [11] and in [12] was “binds” each time. In addition, the binding result in test [13], in test [14], in [15] and in test [16] was “binds” throughout.

B8: psNb 2-38 (VHH)
VHH: QVQLVESGGGLVQAGGSLRLSCAAAARFSTSAMGWFRQAPGKEREFVAAISWSNTNTHYADTVKGRFTISADTAKETVDLQMNSLKPEDTAVYYCVQGGWGIRQPIIVDYWGKGTQVTVSS
In the case of B8, the binding result in test [1] was “binds”.
